Reference: PMC12422189, “Molecular exaptation by the integrin αI domain” (Science Advances, 2025)

T1: Fc-tagged E-cadherin ectodomain (UniProt P12830 155-698)
T1 construct: Fc tag amplified from Addgene plasmid 145164; E-cadherin insert a gift from B. Gumbiner; Captured on Protein A biosensors by the Fc; also called Human Fc-tagged E-cadherin ectodomain; source: ExpiCHO, secreted, purified (HiTrap Protein G, Superdex 200); not shown: Fc (human), C-terminal, kept
T1 sequence (looked up): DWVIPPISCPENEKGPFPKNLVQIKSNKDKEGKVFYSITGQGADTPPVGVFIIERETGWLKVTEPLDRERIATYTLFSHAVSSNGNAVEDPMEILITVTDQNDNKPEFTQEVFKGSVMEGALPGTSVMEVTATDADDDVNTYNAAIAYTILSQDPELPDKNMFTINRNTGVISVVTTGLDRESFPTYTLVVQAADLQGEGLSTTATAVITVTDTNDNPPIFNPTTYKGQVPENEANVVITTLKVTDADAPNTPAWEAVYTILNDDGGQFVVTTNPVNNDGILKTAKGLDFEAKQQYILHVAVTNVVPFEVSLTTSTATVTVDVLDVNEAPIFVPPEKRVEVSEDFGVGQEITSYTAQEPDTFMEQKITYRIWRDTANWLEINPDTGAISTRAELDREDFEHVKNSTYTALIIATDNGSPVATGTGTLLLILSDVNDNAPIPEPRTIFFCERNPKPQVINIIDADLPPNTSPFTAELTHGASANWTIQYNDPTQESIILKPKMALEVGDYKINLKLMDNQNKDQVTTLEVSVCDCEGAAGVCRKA


Tests used:
[1] = target: integrin αLβ2 with the αL internal ligand IEGT replaced by VDGT (UniProt P20701); assay: flow cytometry on cells; HEK293T cells transfected with αL variants and β2; 20 mM tris-HCl pH 7.4, 150 mM NaCl, 1 mM MgCl2 + 1 mM MnCl2; purified His-tagged ICAM-1 ectodomain at 20 μg/ml, 1 hour at 37°C; read with iFluor 647 anti-His tag antibody; percent positive cells normalized to wild type
Sequence of integrin αLβ2 with the αL internal ligand IEGT replaced by VDGT (P20701 26-1170, chain 1 of 2): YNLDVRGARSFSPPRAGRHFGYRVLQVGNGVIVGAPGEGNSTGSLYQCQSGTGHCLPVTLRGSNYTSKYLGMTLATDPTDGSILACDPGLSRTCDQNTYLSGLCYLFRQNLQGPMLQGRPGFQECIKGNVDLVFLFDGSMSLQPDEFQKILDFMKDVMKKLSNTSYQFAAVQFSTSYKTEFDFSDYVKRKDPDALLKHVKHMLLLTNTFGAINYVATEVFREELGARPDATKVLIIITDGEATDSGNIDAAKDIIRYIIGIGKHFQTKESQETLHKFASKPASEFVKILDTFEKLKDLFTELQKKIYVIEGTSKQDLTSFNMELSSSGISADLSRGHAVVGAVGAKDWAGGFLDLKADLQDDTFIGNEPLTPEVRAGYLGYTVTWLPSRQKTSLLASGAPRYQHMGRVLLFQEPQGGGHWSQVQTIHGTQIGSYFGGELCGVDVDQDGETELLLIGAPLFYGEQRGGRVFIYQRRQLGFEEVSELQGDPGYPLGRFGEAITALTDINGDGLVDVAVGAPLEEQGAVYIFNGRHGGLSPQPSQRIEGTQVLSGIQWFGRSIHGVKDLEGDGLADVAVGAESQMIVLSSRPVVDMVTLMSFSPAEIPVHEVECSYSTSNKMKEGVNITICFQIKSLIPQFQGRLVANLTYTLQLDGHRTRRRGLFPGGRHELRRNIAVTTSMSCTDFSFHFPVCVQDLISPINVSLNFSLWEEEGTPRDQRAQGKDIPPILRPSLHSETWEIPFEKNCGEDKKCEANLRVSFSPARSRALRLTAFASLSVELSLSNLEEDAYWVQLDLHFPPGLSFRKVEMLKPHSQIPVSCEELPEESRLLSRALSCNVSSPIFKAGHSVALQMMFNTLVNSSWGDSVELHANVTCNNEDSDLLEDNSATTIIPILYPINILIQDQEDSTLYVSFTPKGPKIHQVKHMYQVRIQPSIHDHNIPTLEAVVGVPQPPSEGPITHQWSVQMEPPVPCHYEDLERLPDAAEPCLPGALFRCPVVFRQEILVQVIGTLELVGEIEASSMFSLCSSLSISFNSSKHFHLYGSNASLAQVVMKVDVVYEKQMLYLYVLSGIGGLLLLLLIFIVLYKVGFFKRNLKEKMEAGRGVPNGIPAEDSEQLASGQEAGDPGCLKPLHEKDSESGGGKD
Sequence of integrin αLβ2 with the αL internal ligand IEGT replaced by VDGT (P05107 23-769, chain 2 of 2, further chain): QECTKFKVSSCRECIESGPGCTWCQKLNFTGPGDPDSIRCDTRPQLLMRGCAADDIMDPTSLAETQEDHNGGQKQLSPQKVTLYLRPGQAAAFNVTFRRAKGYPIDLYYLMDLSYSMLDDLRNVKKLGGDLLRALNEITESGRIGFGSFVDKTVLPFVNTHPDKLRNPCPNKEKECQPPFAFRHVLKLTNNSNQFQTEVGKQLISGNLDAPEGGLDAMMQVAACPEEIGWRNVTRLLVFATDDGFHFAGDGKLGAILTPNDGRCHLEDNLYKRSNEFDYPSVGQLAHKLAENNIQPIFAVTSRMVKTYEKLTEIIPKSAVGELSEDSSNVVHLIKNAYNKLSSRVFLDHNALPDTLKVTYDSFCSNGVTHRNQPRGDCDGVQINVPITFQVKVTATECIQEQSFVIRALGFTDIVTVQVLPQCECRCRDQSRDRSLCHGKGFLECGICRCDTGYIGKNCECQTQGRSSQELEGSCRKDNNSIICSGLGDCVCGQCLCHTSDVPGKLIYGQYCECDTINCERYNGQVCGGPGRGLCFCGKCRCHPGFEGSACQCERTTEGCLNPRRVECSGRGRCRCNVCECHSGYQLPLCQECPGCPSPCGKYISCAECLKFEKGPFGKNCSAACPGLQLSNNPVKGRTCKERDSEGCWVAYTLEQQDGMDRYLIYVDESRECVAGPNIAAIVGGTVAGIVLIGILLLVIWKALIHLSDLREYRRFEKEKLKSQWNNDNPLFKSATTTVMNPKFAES

[2] = target: T1, Fc-tagged E-cadherin ectodomain; assay: BLI; Octet RED, 25°C; Fc-tagged E-cadherin ectodomain loaded on Protein A biosensors; αEβ7 in solution, two-fold series 500 to 16.125 nM; activating buffer with 0.1% BSA and 0.02% Tween 20; 1:1 model, global fit of three replicates; details: both partners purified

Sequence of intercellular adhesion molecule-1 (ICAM-1) ectodomain, His-tagged (P05362 28-480): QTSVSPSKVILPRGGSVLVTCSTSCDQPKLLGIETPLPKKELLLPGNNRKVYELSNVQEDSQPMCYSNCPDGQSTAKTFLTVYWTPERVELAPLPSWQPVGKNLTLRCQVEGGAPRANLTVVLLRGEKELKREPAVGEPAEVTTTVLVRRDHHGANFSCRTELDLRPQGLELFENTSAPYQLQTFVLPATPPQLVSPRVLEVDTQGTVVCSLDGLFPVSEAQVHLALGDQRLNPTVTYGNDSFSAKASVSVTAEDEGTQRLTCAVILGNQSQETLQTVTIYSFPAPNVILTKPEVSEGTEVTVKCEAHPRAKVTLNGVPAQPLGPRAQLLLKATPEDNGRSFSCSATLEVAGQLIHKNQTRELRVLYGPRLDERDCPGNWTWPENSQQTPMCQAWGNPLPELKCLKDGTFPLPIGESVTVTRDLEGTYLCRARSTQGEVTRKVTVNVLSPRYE

Row | ligand binding, percent of wild type [1] | Kd [2] | Molecule
1 | 60% | – | intercellular adhesion molecule-1 (ICAM-1) ectodomain, His-tagged (from UniProt P05362 28-480) (ligand)
2 | – | 51 ± 7.9 nM | integrin αEβ7 (as used for biolayer interferometry) (complex, Wild-type αE taken for BLI: the paper assigns wild-type to the E-cadherin complex and RRtoGG (R177G/R178G) only to the Fab complex; the BLI section does not state which was used. Signal peptides …) chain 1: FNVDVARPWLTPKGGAPFVLSSLLHQDPSTNQTWLLVTSPRTKRTPGPLHRCSLVQDEILCHPVEHVPIPKGRHRGVTVVRSHHGVLICIQVLVRRPHSLSSELTGTCSLLGPDLRPQAQANFFDLENLLDPDARVDTGDCYSNKEGGGEDDVNTARQRRALEKEEEEDKEEEEDEEEEEAGTEIAIILDGSGSIDPPDFQRAKDFISNMMRNFYEKCFECNFALVQYGGVIQTEFDLRDSQDVMASLARVQNITQVGSVTKTASAMQHVLDSIFTSSHGSRRKASKVMVVLTDGGIFEDPLNLTTVINSPKMQGVERFAIGVGEEFKSARTARELNLIASDPDETHAFKVTNYMALDGLLSKLRYNIISMEGTVGDALHYQLAQIGFSAQILDERQVLLGAVGAFDWSGGALLYDTRSRRGRFLNQTAAAAADAEAAQYSYLGYAVAVLHKTCSLSYIAGAPRYKHHGAVFELQKEGREASFLPVLEGEQMGSYFGSELCPVDIDMDGSTDFLLVAAPFYHVHGEEGRVYVYRLSEQDGSFSLARILSGHPGFTNARFGFAMAAMGDLSQDKLTDVAIGAPLEGFGADDGASFGSVYIYNGHWDGLSASPSQRIRASTVAPGLQYFGMSMAGGFDISGDGLADITVGTLGQAVVFRSRPVVRLKVSMAFTPSALPIGFNGVVNVRLCFEISSVTTASESGLREALLNFTLDVDVGKQRRRLQCSDVRSCLGCLREWSSGSQLCEDLLLMPTEGELCEEDCFSNASVKVSYQLQTPEGQTDHPQPILDRYTEPFAIFQLPYEKACKNKLFCVAELQLATTVSQQELVVGLTKELTLNINLTNSGEDSYMTSMALNYPRNLQLKRMQKPPSPNIQCDDPQPVASVLIMNCRIGHPVLKRSSAHVSVVWQLEENAFPNRTADITVTVTNSNERRSLANETHTLQFRHGFVAVLSKPSIMYVNTGQGLSHHKEFLFHVHGENLFGAEYQLQICVPTKLRGLQVVAVKKLTRTQASTVCTWSQERACAYSSVQHVEEWHSVSCVIASDKENVTVAAEISWDHSEELLKDVTELQILGEISFNKSLYEGLNAENHRTKITVVFLKDEKYH chain 2: ELDAKIPSTGDATEWRNPHLSMLGSCQPAPSCQKCILSHPSCAWCKQLNFTASGEAEARRCARREELLARGCPLEELEEPRGQQEVLQDQPLSQGARGEGATQLAPQRVRVTLRPGEPQQLQVRFLRAEGYPVDLYYLMDLSYSMKDDLERVRQLGHALLVRLQEVTHSVRIGFGSFVDKTVLPFVSTVPSKLRHPCPTRLERCQSPFSFHHVLSLTGDAQAFEREVGRQSVSGNLDSPEGGFDAILQAALCQEQIGWRNVSRLLVFTSDDTFHTAGDGKLGGIFMPSDGHCHLDSNGLYSRSTEFDYPSVGQVAQALSAANIQPIFAVTSAALPVYQELSKLIPKSAVGELSEDSSNVVQLIMDAYNSLSSTVTLEHSSLPPGVHISYESQCEGPEKREGKAEDRGQCNHVRINQTVTFWVSLQATHCLPEPHLLRLRALGFSEELIVELHTLCDCNCSDTQPQAPHCSDGQGHLQCGVCSCAPGRLGRLCECSVAELSSPDLESGCRAPNGTGPLCSGKGHCQCGRCSCSGQSSGHLCECDDASCERHEGILCGGFGRCQCGVCHCHANRTGRACECSGDMDSCISPEGGLCSGHGRCKCNRCQCLDGYYGALCDQCPGCKTPCERHRDCAECGAFRTGPLATNCSTACAHTNVTLALAPILDDGWCKERTLDNQLFFFLVEDDARGTVVLRVRPQEKGADH
